Laboratory results published in the Human Domainome abundance scans (Beltran et al. 2025).
± gives the uncertainty stated by the source.

B1: Transitional endoplasmic reticulum ATPase, residues 26 to 106; numbered along this chain, P55072 (parent)
chain: LIVDEAINEDNSVVSLSQPKMDELQLFRGDTVLLKGKKRREAVCIVLSDDTCSDEKIRMNRVVRNNLRVRLGDVISIQPCP

Variants of: B1
Test: abundance fitness (aPCA) (normalised: wild type 0, dead -1); higher = more abundant; growth selection in yeast, the domain comes from the species named
Conditions: Homo sapiens

Abundance fitness of substitutions, site by site:
K35: F -0.247 ± 0.2
L33: Y 0.086 ± 0.12; M 0.019 ± 0.083; F -0.318 ± 0.17; K -0.045 ± 0.1; W -0.155 ± 0.065; T -0.03 ± 0.088; E -0.19 ± 0.081; P -0.955 ± 0.13; D -0.572 ± 0.064; H -0.031 ± 0.11; S -0.122 ± 0.056; Q -0.109 ± 0.087; C 0.055 ± 0.094; V 0.042 ± 0.061; G -0.344 ± 0.038; I -0.23 ± 0.14; R -0.068 ± 0.046
E23: N -0.112 ± 0.31; I -0.126 ± 0.18; M 0.085 ± 0.3; R -0.09 ± 0.064; D -0.23 ± 0.12; L -0.148 ± 0.089; T -0.041 ± 0.083; G -0.079 ± 0.061; Y -0.164 ± 0.27; Q -0.104 ± 0.11; S -0.062 ± 0.059; F -0.263 ± 0.21; P -1.16 ± 0.32; W -0.338 ± 0.12; V -0.142 ± 0.087; H -0.2 ± 0.21; C -0.496 ± 0.26; A -0.103 ± 0.06; K -0.187 ± 0.11
L34: V -0.047 ± 0.07; G -0.46 ± 0.12; S -0.757 ± 0.12; E -1.01 ± 0.25; F -0.856 ± 0.39; P -1.04 ± 0.43; I 0.074 ± 0.21; C 0.26 ± 0.41; W -0.777 ± 0.23; K -0.806 ± 0.2; M -0.073 ± 0.11; N -0.891 ± 0.28; R -0.963 ± 0.17; T -0.558 ± 0.07; A -0.292 ± 0.1; Q -0.461 ± 0.32
V32: M -0.166 ± 0.1; G -0.587 ± 0.049; E -1.05 ± 0.33; T -0.827 ± 0.19; P -1.09 ± 0.28; F -0.832 ± 0.28; S -0.854 ± 0.11; W -0.988 ± 0.22; R -0.98 ± 0.11; Q -0.785 ± 0.18; A -0.18 ± 0.057; I -0.016 ± 0.07; C 0.007 ± 0.094
G29: Q -0.104 ± 0.049; L -0.209 ± 0.061; E -0.198 ± 0.063; F -0.157 ± 0.098; A -0.203 ± 0.06; N -0.03 ± 0.11; W -0.268 ± 0.062; V -0.612 ± 0.098; P -1.06 ± 0.28; D -0.172 ± 0.097; S -0.109 ± 0.062; R -0.197 ± 0.056; M -0.098 ± 0.12; H 0.059 ± 0.17; C -0.259 ± 0.1; T -0.391 ± 0.092
F27: H 0.028 ± 0.099; S 0.085 ± 0.045; W -0.101 ± 0.06; L 0.026 ± 0.052; T 0.127 ± 0.06; G 0.016 ± 0.05; Q -0.098 ± 0.1; A 0.042 ± 0.048; N -0.022 ± 0.12; P -0.238 ± 0.084; C 0.045 ± 0.076; R 0.009 ± 0.057; E 0.095 ± 0.081; V 0.044 ± 0.048; I -0.04 ± 0.062; M -0.045 ± 0.077; Y -0.109 ± 0.075; K -0.023 ± 0.092; D 0.069 ± 0.1
K20: M 0.04 ± 0.074; L 0.01 ± 0.051; C -0.096 ± 0.11; W -0.391 ± 0.14; D -0.39 ± 0.22; I -0.008 ± 0.058; P -1.19 ± 0.36; Q -0.014 ± 0.11; T -0.08 ± 0.071; F -0.233 ± 0.09; R -0.019 ± 0.073; A -0.005 ± 0.062; H -0.389 ± 0.12; N -0.093 ± 0.1; E -0.705 ± 0.12; V 0.004 ± 0.046; S -0.162 ± 0.056
P19: K -0.252 ± 0.18; E 0.087 ± 0.088; H -0.003 ± 0.15; I 0.088 ± 0.12; N -0.251 ± 0.26; A -0.018 ± 0.054; S 0.051 ± 0.059; W -0.016 ± 0.08; V 0.047 ± 0.054; Q 0.093 ± 0.1; C -0.179 ± 0.11; M 0.015 ± 0.14; G 0.063 ± 0.045; Y 0.072 ± 0.24; D -0.101 ± 0.16
Q18: P -0.078 ± 0.092; S -0.052 ± 0.069; R -0.046 ± 0.062; Y -0.23 ± 0.15; H 0.036 ± 0.17; W -0.206 ± 0.1; A -0.003 ± 0.072; C -0.074 ± 0.067; G -0.034 ± 0.043; K -0.037 ± 0.19; L -0.049 ± 0.052; N -0.461 ± 0.32; D -0.264 ± 0.089; E -0.114 ± 0.1; M 0.249 ± 0.13; V 0.001 ± 0.05; T -0.148 ± 0.096; F -0.191 ± 0.074; I -0.088 ± 0.076
G36: S -0.026 ± 0.07; Q -0.688 ± 0.18; F -0.135 ± 0.092; L -0.757 ± 0.099; V -0.218 ± 0.059; T -0.042 ± 0.096; E -0.191 ± 0.15; D -0.262 ± 0.093; I -0.545 ± 0.2; M -0.309 ± 0.13; N 0.058 ± 0.13; K -0.423 ± 0.15; C 0.015 ± 0.083; R -0.37 ± 0.056; A -0.041 ± 0.036
